Measurements taken from patent publication US20250041434A1, “CEA ASSAY FOR PATIENT SELECTION IN CANCER THERAPY” (SANOFI, priority 2021, published 2025).

Experiments:
[1] = test system: patient-derived CRC xenograft expressing CEACAM5; experiment: circulating CEA in mice engrafted orthotopically with patient-derived CRC xenograft; format: in vivo; details: single active dose; rise in circulating CEA occurring with tumor growth
Excerpt: However, specificities linked to the CEACAM5 target would potentially allow a more accurate follow-up of treatment impact on tumor growth by the monitoring CEA levels in the blood. Indeed, measurement of circulating CEA levels is of some use for CRC treatment monitoring. […] Similarly, modulation of circulating CEA may be a useful PDy marker of response to tusamitamab ravtansine. […] The usefulness of monitoring circulating CEA will be explored in this clinical study.

CEACAM7 = target: T1, CEACAM7 (Homo sapiens, UniProt Q14002); experiment: recognition of other CEACAMs; format: binding
T1 sequence (Q14002 36-242): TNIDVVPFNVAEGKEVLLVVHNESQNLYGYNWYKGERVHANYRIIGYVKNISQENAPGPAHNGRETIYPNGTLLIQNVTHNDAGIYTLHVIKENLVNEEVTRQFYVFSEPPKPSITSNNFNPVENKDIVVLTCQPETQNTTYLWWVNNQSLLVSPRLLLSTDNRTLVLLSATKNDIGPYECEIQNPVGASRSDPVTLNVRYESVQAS

CEACAM8 = target: T2, CEACAM8 (Homo sapiens, UniProt P31997); experiment: recognition of other CEACAMs; format: binding
T2 sequence (P31997 35-320): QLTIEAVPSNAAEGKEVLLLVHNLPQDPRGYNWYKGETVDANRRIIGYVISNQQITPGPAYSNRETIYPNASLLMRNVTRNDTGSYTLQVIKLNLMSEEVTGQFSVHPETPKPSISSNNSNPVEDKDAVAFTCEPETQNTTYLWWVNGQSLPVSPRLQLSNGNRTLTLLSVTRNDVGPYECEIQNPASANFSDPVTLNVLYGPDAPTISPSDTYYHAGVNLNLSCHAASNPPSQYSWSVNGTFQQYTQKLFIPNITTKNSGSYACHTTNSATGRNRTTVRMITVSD

[2] = Phase 1/2 study adverse drug reactions; format: in vivo, human; details: heavily pre-treated high CEACAM5 expressers for NSCLC
Experimental: The ADC was analyzed in a Phase 1/2 study in heavily pre-treated high CEACAM5 expressers for NSCLC.

[3] = TED13751 Main dose escalation, maximum tolerated dose; format: in vivo, human; details: q2w, IV infusion
Excerpt: The dose escalation decision will be based on the dose limiting toxicities (DLTs) observed during Cycle 1+Cycle 2 in q2w cycle and during Cycle 1 in q3w cycle, whether related or not to the investigational medicinal product (IMP) in the absence of clear evidence to the contrary after validation by the Study Committee, and if not related to the progression of disease. Before escalating the tusamitamab ravtansine dose to the next level, the safety data, and especially DLTs, ocular and cardiac adverse events (AEs) will be reviewed by the Study Committee. Cumulative toxicities observed on subsequent administrations will also be considered for the dose escalation process and the dose selection decision. […]
For the accelerated dose escalation phase, as well as for the Bayesian EWOC, a minimum of […] duration (˜4 weeks) will be mandatory between the last patient who has received Day 1 of Cycle 1 at DL n, and the first patient who will receive Day 1 of Cycle 1 at DL n+1. The dose determined to be the maximum tolerated dose (MTD) will be tested further in the Expansion cohorts.
The first loading dose tested will be 120 mg/m^2; if this first dose is safe, then dose escalation will proceed to test next 135 mg/m^2, and 150 mg/m^2. […] The determined MTD or safe MAD will be used for CRC-L cohort.

[4] = test system: relevant experimental model; experiment: single administration in relevant experimental model; format: in vivo
tumor cells = details: see WO 2014/079886; cited from earlier work

For “Tusamitamab ravtansine: immunoconjugate ADC combining humanized anti-CEACAM5 antibody tusamitamab and maytansinoid DM4 via SPDB linker; CAS Registry No. 2254086-60-5”, the “circulating CEA” value [1] was “prevented a rise in circulating CEA”, the “recognition of CEACAM7” value (CEACAM7) was “does not recognize” and the “recognition of CEACAM8” value (CEACAM8) was “does not recognize”. For the same substance, the hematological/nerve toxicity [2] was “minimal”, the “most common Adverse Drug Reactions (ADRs)” value ([2]; reversible without treatment discontinuation) was “ocular toxicity” and the “maximum tolerated dose (MTD)” value [3] was 100 mg/m^2. For the same substance, the tumor regressions [4] was “induces regressions” and the “cytotoxic activity on tumor cells in vitro” value (tumor cells) was “induce cytotoxic activity”.
